According to PMC11332147, “Repression of Acinetobacter baumannii DNA damage response requires DdrR-assisted binding of UmuDAb dimers to atypical SOS box”:
Residue numbers refer to the chain shown, from its start.

What was measured:
[1] = target: UmuDAb HTH2 (Acinetobacter baumannii ATCC 17978 JH, UniProt A0A0D5YJU0 1-203, K40P;N41P); experiment: EMSA; Hill 10.8; 78% bound; […] (10x = 100 mM Tris, 500 mM KCl, 10 mM DTT, […]; conditions: protein: recombinant; chain copies: 2; label: 5' IRDye700 on both strands; blunt
[2] = target: UmuDAb W192X (Acinetobacter baumannii ATCC 17978 JH, UniProt A0A0D5YJU0 1-191); experiment: EMSA; Hill 6.1; 60-70% bound above 1 uM; […] (10x = 100 mM Tris, 500 mM KCl, 10 mM DTT, […]; conditions: protein: recombinant; chain copies: 2; label: 5' IRDye700 on both strands; blunt
[3] = target: UmuDAb HTH1 (Acinetobacter baumannii ATCC 17978 JH, UniProt A0A0D5YJU0 1-203, E24K); experiment: EMSA; Hill 6.1; 94% bound; […] (10x = 100 mM Tris, 500 mM KCl, 10 mM DTT, […]; conditions: protein: recombinant; chain copies: 2; label: 5' IRDye700 on both strands; blunt
[4] = target: UmuDAb G124D (Acinetobacter baumannii ATCC 17978 JH, UniProt A0A0D5YJU0 1-203, G124D); experiment: EMSA; Bmax < 0.90; […] (10x = 100 mM Tris, 500 mM KCl, 10 mM DTT, […]; conditions: protein: recombinant; chain copies: 2; label: 5' IRDye700 on both strands; blunt
[5] = target: UmuDAb N100D (Acinetobacter baumannii ATCC 17978 JH, UniProt A0A0D5YJU0 1-203, N100D); experiment: as above; conditions: protein: recombinant; chain copies: 2; label: 5' IRDye700 on both strands; blunt
[6] = target: UmuDAb A83Y (Acinetobacter baumannii ATCC 17978 JH, UniProt A0A0D5YJU0 1-203, A83Y); experiment: EMSA; Hill 4.65; legend gives 69 nM; […] (10x = 100 mM Tris, 500 mM KCl, 10 mM DTT, […]; conditions: protein: recombinant; chain copies: 2; label: 5' IRDye700 on both strands; blunt
[7] = target: T1, UmuDAb (Acinetobacter baumannii ATCC 17978 JH, UniProt A0A0D5YJU0 1-203); experiment: EMSA; Hill 4.9; EMSA: LI-COR Odyssey binding buffer (10x = 100 mM Tris, 500 mM KCl, 10 mM DTT, pH 7.5), 25 mM DTT, 1 ug/uL poly(dI-dC), 200 fmol probe per 20 uL, 20 min at room temperature; 5% TBE gel run at 4 C; conditions: protein: recombinant; chain copies: 2; label: 5' IRDye700 on both strands; blunt
T1 sequence: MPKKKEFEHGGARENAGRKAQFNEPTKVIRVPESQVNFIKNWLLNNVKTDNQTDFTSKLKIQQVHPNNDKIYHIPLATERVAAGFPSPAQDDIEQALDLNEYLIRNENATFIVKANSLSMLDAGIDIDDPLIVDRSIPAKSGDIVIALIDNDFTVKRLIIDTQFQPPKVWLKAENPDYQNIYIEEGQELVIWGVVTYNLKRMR

[8] = target: UmuDAb R201X (Acinetobacter baumannii ATCC 17978 JH, UniProt A0A0D5YJU0 1-200); experiment: EMSA; 60-70% bound above 1 uM; […] (10x = 100 mM Tris, 500 mM KCl, 10 mM DTT, […]; conditions: protein: recombinant; chain copies: 2; label: 5' IRDye700 on both strands; blunt
[9] = target: T1, UmuDAb; experiment: competition; 100x competitor; not different from WT; […] (10x = 100 mM Tris, 500 mM KCl, 10 mM DTT, […]; conditions: protein: recombinant; chain copies: 2; blunt
[10] = target: T1, UmuDAb; experiment: EMSA; no higher MW second band; […] (10x = 100 mM Tris, 500 mM KCl, 10 mM DTT, […]; conditions: protein: recombinant; chain copies: 2; blunt
[11] = target: T1, UmuDAb; experiment: competition; 100x competitor; […] (10x = 100 mM Tris, 500 mM KCl, 10 mM DTT, […]; conditions: protein: recombinant; chain copies: 2; blunt
[12] = target: T1, UmuDAb; experiment: competition; 100x competitor; also fails vs L2-labeled probe (Fig S3); […] (10x = 100 mM Tris, 500 mM KCl, 10 mM DTT, […]; conditions: protein: recombinant, chain copies: 2, blunt

B1: WT 37 bp UmuDAb operator probe (dsDNA)
DNA 1: TCGTCAACTTGAAAATGTAACTTTTTCAAGTTACATT
DNA 2: AATGTAACTTGAAAAAGTTACATTTTCAAGTTGACGA
Kd [1]: 114 nM
Kd [2]: 540 nM
Kd [3]: 99 nM
Kd [4]: 390 nM
Kd [5]: 306 nM
Kd [6]: 70 nM
Kd [7]: 38.9 nM
Kd [8]: 353 nM

B2: R2 (dsDNA)
DNA 1: B1 DNA 1 with T26C, C27T, A28G, A29G
DNA 2: B1 DNA 2 with T9C, T10C, G11A, A12G
binding result [9]: binds

B3: R1 (dsDNA)
DNA 1: B1 DNA 1 with T10C, G11A
DNA 2: B1 DNA 2 with C27T, A28G
binding result [9]: binds

B4: L1 (dsDNA)
DNA 1: B1 DNA 1 with C27T, A28G
DNA 2: B1 DNA 2 with T10C, G11A
binding result [9]: binds

B5: L2 labeled probe (dsDNA)
DNA 1: B1 DNA 1 with T9C, T10C, G11A, A12G
DNA 2: B1 DNA 2 with T26C, C27T, A28G, A29G
binding signal [10]: ~0.75 Kd ratio to WT probe

B6: C3 (dsDNA)
DNA 1: B1 DNA 1 with G17T, T18C, A20G, C21A
DNA 2: B1 DNA 2 with G17T, T18C, A20G, C21A
binding result [11]: no binding

B7: LR3 (dsDNA)
DNA 1: TCGTCAACCCAGAAATGTAACTTTTCTGGGTTACATT
DNA 2: AATGTAACCCAGAAAAGTTACATTTCTGGGTTGACGA
binding result [11]: no binding

B8: L2C31-2 (dsDNA)
DNA 1: TCGTCAACCCAGAAATTCAACTTTTTCAAGTTACATT
DNA 2: AATGTAACTTGAAAAAGTTGAATTTCTGGGTTGACGA
binding result [12]: no binding

B9: L2C34-5 (dsDNA)
DNA 1: B8 DNA 1 with T17G, C18T, A20G, C21A
DNA 2: B8 DNA 2 with G17A, G20A, A21C
binding result ([12]; 2 mismatches in core as printed): no binding
